Our source for the protein production values is a protein production outcome set (Wang et al. 2014).

A short description of the series: label from the status in PepcDB records.
For the sequence “MFLFSLTLGVYCSSWTFYGATGAAVREGVIFLPIYLGPLLFVWFGYDIWRRLGRVRQHHAISSIADFVAARYGKSGVLASLVTILAVIAIIPYLALQLRAIALSTSVIMEQSSHIHTTTNSVLLLTSVLAILAMIFGTRQIANTEQHGGLMLAVAFESFVKLFALLCVALFFIFESPANLSQMTSDVNQTFQEVQLFGVPETFWIQTLLAGLAIICLPRQFHVAVVELRDEKHIRGARKWFAVYLILTILAIIPIASWALHAAPKFLTVPDVAVLSLPLSYNQEWLALLAFLGGFSASTGMLLVSSVALSIMLSNDLIMPALWRFKLLSRHDKHLPKVLKFSRRISIVAVMLLGFLFFHFFNDINQLSVFGLLAFSAVAQFAPALIGGLYWRGGSRQGVYAGLIIGFLMWSYTLLFPTILRSLPEAYQETAQSILLFGPFGINALRPESLFGFESFAPLTHGVIWSLGLNIVLYIWISKIYRPSVAEQIQAESFFYYETKPLPSPHTSTDLTYLPHDAARLKVGDLFALAKRITGEQPTTQAFENFCEQNHLTLNPNSIANGMWWRFTEQYLAGIIGAASARTLLTTAMINNGLALGQVANILDQASQWQRFNQNLLMTMIDHMTQGVSVVDKNMCLVAWNNQYLKLFGYPKDLVYVGCPIADLIRYNAERGECGPGSVEEHVRKRLHWMKVGSAHEFERIRKDGRVIQMRGNPIAGGGFVTTFADITAFRANEAVLEARVKDRTQQLADALTEQQLAREQADMANMSKSRFIAAASHDLLQPMHAARLFSTVLEQSISTEEDRQTLQQLDRALYGAESMLSALLDIARLEGGTIQPKRQPYPLHDLLSDLELQFKSIAAQRNISLKVHDVSFWIDTDPQWIRRIIQNFVSNALRYTAKGRVVVGVLRSAQQSGHIRIGVWDTGPGIAEEQRIKLFQEFERCGHLSPWGEQGLGLGLAIVQRMTGLLNYPVHVYSELGKGSCFMIEVPIVEPPKVATPAVQAVPLKTKAYRILCLDNDETILEGMSSLLGRWGYQVFKATEPEQALEIIQKENIQVWLIDQHLNHNQLGVDFITQNRQEDVPVALITADSHPELPQQLKELNIVLLKKPLKPASLRAWLSGLKIASTTD”, the protein production entry is on record as “failed”. To “MFLLEPKQSSNPMQPQETAARYDTIAQWWQTQHQDSQYGLRQLERAIQFVDPTHQPKLALEVGCGSSGRFIECLSNRGFQVEGLDISTAMIDLAQQLHPEVTFYRADICEWIPSKSYSLIVAWDSTFHLPLDQQAPVHRKLCAALEDQGILMFTCGGGDQAGEIAGVFQGQDFEYSTLGIDAFLKLLSDCHCTCLHLEYDQYPERHVYVIAKKVGAAIH” belongs “failed”; to “MFMAKRYENMDNVSTKKSIRSFLRWRKERKQNKKDFSFLVEQSPVKQSAFLQSNVEKTTITWIGHSTFLIQTNGLNILTDPVWANKLKLVPRLTEPGLSIEALPKIDIVLISHGHYDHLDFSTLRQLNDDVLYLVPIGLKKLFTRKKFKHVEEYKWWESTIINEVSFHFVPSQHWTRRFLFDMNTSHWGGWIIDNETTMETIYFCGDSGYFQGFKEIGERFLIDIALMPIGAYEPEWFMKVSHVSPEEAVQAYLDLNATHFIPMHYGAFALADETPREAITRLRNNWNLRMLPWEQLHVLFLGQTFIYSNATNNKQIKEKIETLHV”, “failed”; to “MFMEVSLTSLPAHVMNALDAIWEGSIADSLESETLEFKEDPSCAGRGKQHGNPQAALIEKLIDEAVCLANGDAGTGHIVVGIKDKIGGPEAFTGTTFDTEKIAKKIFDGTRPNLRPEVHEVRYQNNRLIVIYIPEALSLYSRSKGQTSKRVGSHCEPLSEEQRRAIAATRAHADYSNGISEFNVDDIAADTIQEVRRLLKTKRAQSGIDTSLPTTTNGLLRELGLIDNYGALKRAGAILLLPAPEGQLSIRHFWRSFPGIDPEVTDYNQPLLIALSSLKRRITENANKEIKRIQFSDGQEIAVSAFPQTAVDEVVTNAIIHRDWRLSRPVVIDQSPQTLKVWSPGSLPVGVTPNRLLTTQSIPRNSRLMSAMRMLGLAEESSRGFDRIWAALLGSGRDIPDVHTEDTFVEVILHSGNPDESFIKALHELSLSFNPDMLHSVNTLIVLWHLWTSPVISLKQARVKTQTSSKEATELMFALESNGLLTQIHNTDEWFLSEKARKTTNYYQSETIPQSSVQTWVEEKLSSGSPISAAEIAESIGMPRPEITEILRNLRRAGKAHIDPSGPQRGSGTRWIKGT”, “failed”.

Turning to “MFNAGNRIINTWLYPIQDGFVLIDTGYENGFKHFKKRISKFNIKIKDIRYIFLTHAHDDHVGFLNQILDESPNTKIVMHDKALEILYKGQNSFIGGCTSRTAFLFCQIMKLFGKGEHSFSPLKQEFEKRCILVSDKNRKEIEKELNGKIIDTPGHTDDSISLLIDDGVLFCGDSAMNGFPSTHKITIFAESKLEFIQSWKTIINTKPKMIYPGHGKPFEYSKLEQNLIYVNKINLYPLHNSKDIHRFL”, the protein production entry was “failed”.

Consider “MFNESDAPQPPKVLSTPLEIAANLRQLQESHDPLIITFHDRSHRFQSYVVHVDRESNTLALDEMIPRDGEKFIENGEHFRVEGFHDGVRIAWECDHALKISEVDGHRCYSGPLPQEVTYHQRRNAFRAALKLSQLVDIILDGAHLKGNGAMRGKLLDISATGCKLRFEGNVEDRLQLGQVYERFKAGNPLGLVDTMVELRHLHYEERINTTFAGVRFHNLSGQAQRKIESFVYQLQREARRFDKDDY”, for which the protein production entry is listed as “not failed”. To “MFNFFKNKQTEPAAPPPPKDPTPRIEFFNGISEELSNVSLQRNPKTGVKSVSMTFAQLNALDRFQSFTAGSNGIVRLIDEEGDIAVTPSSCRIVFGGEEGDELRGVICRFEIENDDHWERFMRFMHRYADEHGFAYGESAETSNEPSSLASETDSEA” belongs “failed”; to “MFNIKENQTTVKKEILAGITTFFTMVYIVVVNPSILSGTGVPFDQVFTATIIAAVVGTLWMALAANFPIAIAPGMGLNVYFAVSVVGSSNGEISYQTAFSTVFAAGILFIILSLTPLRKQLIEAIPANLKYGITAGIGLFIAFVGLRGAGIITANEANLVGLGNLHSPGVILALIGLAFSVVLMVMNVSGALFFGMILTGLIAFFTGQLEFTKGIMSMPHLPEKLIVTNPFAAFGDVIHYGLYSVVFSFLLVTIFDTTGTMIGVAEQAGLMKNNKLPNARKALLADSTATTVGAMFGTSPTTAYIESSAGVAAGGRTGLTSLTVAVLFGAALFFSPLVSAVSGIAAITSPALIIVGSMMIGAVTNIRWKELDEAFPAFLVILTMPLTSSIATGISLGFIAYPIVKAAKGKWREIHPLVFVFAVLFFIHLFFLEGH”, “failed”; to “MFPGVFEHLLYQYTSAILSVGFLIFNGLFAVIYNPKKVVGIKGDPDYTFTDITVLIPVYNEVEDIFRKVIKSVSSMGLKFVVVGDGVDQPYRAITEQNGGIFIRLEERRGKRFALSEGMRYIDTRLVLLLDSDTFIDKRSLERMLSYMAEDVGGVSPSIRVWNNGKISYYYANFYEIMSEIVNRATSYFGRTIILSGQCVLYKTSAIRNYVMSNDFTSSKIFNISLKISDDRDLTEYIIERGYKAIKAIDAIAYTKPPENLSQFVKQVVRWTRANYLFFLRSLRDGSLSLRGNLYVFDIIYMNFLPILVIFSLIPLQYPRFDIFNTLSASITSLERLDIFQLILGIPIRAHLPPFDFVLVFILPRVLSIIGGVTFLLVMIKIMEKERGKTLMYGVIALIVQSLASFYSIASMWKQSWSSREKNRKSKK”, “failed”. To “MFPRALAIGTPAQHKATEAPVTSTSASGLARFNTLEETAALAELHEACAATAWARHLLAARPFATAEDLYAASDAAMAELSAEDLAEAMAGHPPIGRPKPGDATSSREQAGMAGAAEELKAEMLELNLAYQDKFGHVFLICATGRTGEQMRDAALERIGNSPEQEREIVRTELGKINRIRLTRLVEQDARPLEHHHHHH” belongs “not failed”. For “MFQENRTNELVILKEIAETLNTSNDTYHVLQAVLEKLLSVTGLTTGWIFLADEDGRYTKLIDYQLPEALTYENKRPMCEGECWCLRGFVDGKLERAVNIIECKRINNAIEYNWGDTEGILHHATVPLKAGGEKFGLLNVASPGKTHFSEEELVLLQSVAFQIGTALKRAKLYENEKRRAH”, the protein production result is on record as “failed”.

Regarding “MFQPLLDAFIESASIEKMVSKSPPPPLKIAVANWWGDEEIKEFKKSVLYFILSQRYAITLHQNPNESSDLVFSNPLGAARKILSYQNTKRVFYTGENESPNFNLFDYAIGFDELDFNDRYLRMPLYYAHLHYEAELVNDTTAPYKLKDNSLYALKKPSHHFKENHPNLCAVVNDESDLLKRGFASFVASNANAPMRNAFYDALNSIEPVTGGGSVRNTLGYKVGNKSEFLSQYKFNLCFENSQGYGYVTEKILDAYFSHTIPIYWGSPSVAKDFNPKSFVNVHDFNNFDEAIDYIKYLHTHPNAYLDMLYENPLNTLDGKAYFYQDLSFKKILDFFKTILENDTIYHNNPFIFYRDLHEPLISIDDLRVNYDDLRVNYDDLRVNYDDLRVNYDDLRVNYDDLRVNYDDLRVNYDDLRVNYDDLRVNYDDLRVNYDRLLQNASPLLELSQNTTFKIYRKAYQKSLPLLRTIRRWVKK”, the protein production result is reported as “failed”. As for “MFQTGGLIVFYGLLAQTMAQFGGLPVPLDQTLPLNVNPALPLSPTGLAGSLTNALSNGLLSGGLLGILENLPLLDILKPGGGTSGGLLGGLLGKVTSVIPGLNNIIDIKVTDPQLLELGLVQSPDGHRLYVTIPLGIKLQVNTPLVGASLLRLAVKLDITAEILAVRDKQERIHLVLGDCTHSPGSLQISLLDGLGPLPIQGLLDSLTGILNKVLPELVQGNVCPLVNEVLRGLDITLVHDIVNMLIHGLQFVIKV”, the protein production entry is given as “failed”.

Take “MFQYRFKRSFSSDPNLSDTIGDRLFDLMEATFPGLNDLAECGRKLGAPWEKASTPFIRFHDDVAITHVGVLEIPMVILGQRVTVGGIHGVATREEFRRRGYYREVMEEALEYCDQIYETLVLTTPEPEYYLPFGFRVVEEYIFH”: the protein production entry was “failed”. Take “MFRALKDKKRFIRNLILTFIIFLFIFLLYQFEAFRDIIFIVLVSGIFAYILKPLYRFLCERTKINKNFLAMAIVLSVIFLILFFLTVLIPSMFKEGESFDGLINGIEFFINDLIMKMKFMELGIFDVIEAQVTEKLNILLVSFATSIINNLISFSENILAFAVIPVLAYYFLAYGDLLSNKFLYCCPMEKRALLKNLGRDVDKVLGKYILGQLLLSLLVGVMTFIGMLILGIKFPLLLAFLNALLNIIPYFGAVLGAIPAIVVALVEGPNKILWVILTFLIIQQIEGNLIAPKITAESIDMHPILIIILLLIGEQIGGLLGMVFIVPIAVVIKVLFDDWDYYMFL”: the protein production result is recorded as “failed”. Take “MFRCQTKGWCKSLKPKVFLEFVEIKSLIASVLPFVLGSMYAYYNYHQLHLGYLLLFFIASSLFHMATNANDNYQDFLHAPRNDDNQEFLQETNVVGVNQISIGQARTITFGLAGISLIIGLWLVTQTGLPLLWMGLYSYAVGYFYAGGPKPISQGPFGEFFSGFTMGFMIFWIAVFINTYDTAAITWQSTLAVLIASGLAIFAISNIMLANNICDMDEDIALGRHTILYYLGKPVMLQVFAWSYVAGYACLVIAVLMGVLPKFSLLTLLSIIPVWKNTRVFLHKQVKRETFTISIKNATLICLSFIVFMGLGLIFN”: the protein production entry was “failed”. For the sequence “MFRFNLCVLLFATLATLSAAQEQTPAYVGSAECRDCHTKAAEAWEGSHHAKAWTAPTAENIVADFNDTEFRHDGTLTRFRVEDGRHYITVTEKDGVTTDYPVHSVAGIEPLQQYLLETEPGRIQSFDVVWDTIKQEWFHLYPDQDLPPDDGLHWTGPYKNWNARCAECHATGFEKNYSPVTRSYSSVPVEIGVGCEACHGPGSAHIAWATGKSLEEPLTGLSEYRLTIDYDAGTETVLQQCASCHSRREAHFDGNPVPGIPFNDAYALALLRPGAYHADGQILDEVYVYGSFLQSKMYQQGVSCSNCHEVHSAELKAEGNGVCTQCHSPAGNPSFTTLDSKNYDDPSHHYHEAGTEGAQCKSCHMIERVYMGVDGRRDHSFRIPRPDISLETDSPNACTDCHSDQSSAWAAAAIEEWYPDSENRGLHYGQVLAAGRANAVAARVPLTDLAGDTTQPGIARATALWLLEQSGDATLGAELSSMLTDTDPLVRAAAASAHGLFPPAERAAALEPALDDPRRMVRIAAGKTLLDVPRSALTPSASERLGAALREWQAGLLNRADFPETHIILAGTALTMRNFEGAERAFREVVLMDPQREEAWVMLVRIADAMRGPQAAAQVLDEALQAVPGSDTLNSMRSESLLPPQ”, the protein production result was “failed”.
